Measurements: patent US20190367592A1 (AC IMMUNE, published 2019)
Positions count from the first letter of the chain named. Each block holds one binder with its values, some of them ahead of it.

Experiments:
[1] = target: T1, recombinant human Tau monomer, 2N4R isoform (amino acids 2-441) (human, UniProt P10636-8 2-441); experiment: SPR; Normalized Rmax post-stress (2 weeks 40 C) / pre-stress
T1 construct: range 2-441; N-terminal His-tag removed with TEV protease; also called monomeric Tau
Description: (§1) Briefly, IgGs in 1 mL culuture were captured using tip columns that were custom packed with 20 μL MabSelect SuRe resin (Glygen Corp & GE Healthcare). After washing with 1×PBS pH 7.4, IgGs were eluted into 160 μL of 50 mM phosphoric acid pH 3 and neutralized with 12 μL of 20×PBS pH 11. MabSelect SuRe tip columns were stripped in 0.1 M NaOH and regenerated with 1×PBS pH 7.4 for consecutive use of up to 15 times. Purified antibodies in 96-well format were normalized to 0.1 mg/ml using a Hamilton Star liquid handling robot. The “pre-stress” samples were kept at approximately 4° C. and the “post-stress” samples were incubated at 40° C. for two weeks in a PCR machine. Functional stability of the variants was compared by running surface plasmon resonance kinetics experiments with the “pre-stress” and “post-stress” antibody preps. The antibodies were assessed using a human antibody capture CM5 Series S chip generated using the GE Biacore human IgG capture kit and a Biacore T200 instrument. Antibodies diluted to 2 μg/ml were immobilized using a 15 second injection time and 10 μl/min flow rate. Binding to Tau monomer at 0 nM, 26.5 nM and 265 nM, at 25° C., using a flow rate of 40 μl/min, was monitored for a 180 second association phase followed by a 300 second dissociation phase. Samples were run in 10 mM HEPES pH7.4, 150 mM NaCl, 0.05% Tween 20 (HBSP) using a multi-cycle kinetics format. Data was analyzed using BIAevaluation software, fitting a 1:1 binding model. The resulting affinity (KD) values are shown in FIG. 8A-D. A Stability Index was also calculated, using the rationale that affinity-compromised antibodies (due for example to deamidation of key residues) are expected to contribute equally to the IgG capture level (“Ligand Level”) but to contribute less to the measured Tau binding, and that this would be reflected in the experimentally derived value for Rmax. To account for variations in the amount of each antibody captured, Rmax was normalized for the antibody capture level (as measured by “Ligand Level”, Response Units immobilized during antibody capture). Thus Normalized Rmax is calculated as the experimental Rmax (units=RU) divided by the “Ligand Level” (Evaluation output representing the RU captured during the hIgG capture step, units=RU), and Stability Index is calculated here as Normalized Rmax (post-stress) divided by Normalized Rmax (pre-stress).

[2] = target: T1, recombinant human Tau monomer, 2N4R …; experiment: SPR, captured IgG, Tau monomer analyte, 1:1 model; fit-quality column: Yes
Description: as §1

T1 sequence (P10636 other isoform, or with tags, fused parts or gaps limits assumed): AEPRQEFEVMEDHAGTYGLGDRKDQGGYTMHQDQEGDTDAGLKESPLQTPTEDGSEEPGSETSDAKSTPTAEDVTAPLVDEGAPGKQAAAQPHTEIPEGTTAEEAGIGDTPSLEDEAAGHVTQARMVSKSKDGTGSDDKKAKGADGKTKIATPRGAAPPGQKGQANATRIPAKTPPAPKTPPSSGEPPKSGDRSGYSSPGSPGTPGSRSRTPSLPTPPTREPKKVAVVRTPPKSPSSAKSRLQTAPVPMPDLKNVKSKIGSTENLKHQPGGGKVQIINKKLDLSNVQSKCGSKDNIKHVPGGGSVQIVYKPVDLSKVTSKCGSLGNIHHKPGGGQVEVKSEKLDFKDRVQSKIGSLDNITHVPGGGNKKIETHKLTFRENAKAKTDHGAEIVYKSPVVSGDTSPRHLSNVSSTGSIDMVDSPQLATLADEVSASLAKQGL

B1: hu37D3-H9.v31.8 (antibody, V domains shown)
VH: EVQLVESGGGLVQPGGSLRLSCAASGLIFRSYGMSWVRQAPGKGLEWVATINSGGTYTYYPDSVKGRFTISRDNSKNTLYLQMNSLRAEDTAVYYCANSYSGAMDYWGQGTLVTVSS
VL: DDVLTQTPLSLPVTPGQPASISCRSSQSIVHSNANVYFEWYLQKPGQSPQLLIYKVSNRFSGVPDRFSGSGSGTDFTLKISRVEAEDVGVYYCFQGSLVPWTFGQGTKVEIK
Stability Index [1]: 78% | Kd [2]: 10.9 nM

B2: hu37D3-H9.v30.5 (antibody, V domains shown)
VH: B1 VH
VL: B1 VL with N33I, A34G, V36T
Stability Index [1]: 80% | Kd [2]: 29.1 nM

B6: hu37D3.v28.54 (antibody, V domains shown)
VH: B1 VH
VL: B1 VL with D1E, N33L, A34G, V36T
Stability Index [1]: 82% | Kd [2]: 24.8 nM

B9: hu37D3.v28.B6 (antibody, V domains shown)
VH: B1 VH
VL: B1 VL with N33D, A34G, V36T, Y37R
Stability Index [1]: 46% | Kd [2]: 85.6 nM

B10: hu37D3.v29.14 (antibody, V domains shown)
VH: B1 VH
VL: B1 VL with D1E, N35L, V36T
Stability Index [1]: 92% | Kd [2]: 22 nM

B12: hu37D3.v28.53 (antibody, V domains shown)
VH: B1 VH
VL: B1 VL with D1E, N33R, A34G, V36T
Stability Index [1]: 76% | Kd [2]: 22.9 nM

B15: hu37D3.v28.F3 (antibody, V domains shown)
VH: B1 VH
VL: B1 VL with S32T, V36T
Stability Index [1]: 70% | Kd [2]: 9.5 nM

B17: hu37D3.v28.B2 (antibody, V domains shown)
VH: B1 VH
VL: B1 VL with N33M, A34G, V36T, Y37F
Stability Index [1]: 83% | Kd [2]: 31.8 nM

B18: hu37D3.v29.1 (antibody, V domains shown)
VH: B1 VH
VL: B1 VL with D1E, A34G, N35D, V36T
Stability Index [1]: 70% | Kd [2]: 13.5 nM

B19: hu37D3.v28.E2 (antibody, V domains shown)
VH: B1 VH
VL: B1 VL with H31Q, A34G, V36T
Stability Index [1]: 28% | Kd [2]: 22.5 nM

B25: hu37D3.v28.A6 (antibody, V domains shown)
VH: B1 VH
VL: B1 VL with A34G, V36T, F38L, L98H
Stability Index [1]: 82% | Kd [2]: 38.3 nM

B26: hu37D3.v28.B1 (antibody, V domains shown)
VH: B1 VH
VL: B1 VL with N33I, A34G, V36T, Y37F
Stability Index [1]: 101% | Kd [2]: 24.3 nM

B27: hu37D3.v28.C2 (antibody, V domains shown)
VH: B1 VH
VL: B1 VL with A34D, V36T
Stability Index [1]: 75% | Kd [2]: 9.6 nM

B28: hu37D3.v29.11 (antibody, V domains shown)
VH: B1 VH
VL: B1 VL with D1E, N35A, V36T
Stability Index [1]: 67% | Kd [2]: 27.9 nM

B30: hu37D3.v28.E1 (antibody, V domains shown)
VH: B1 VH
VL: B1 VL with H31N, A34G, V36T
Stability Index [1]: 46% | Kd [2]: 20.1 nM

B31: hu37D3.v28.A2 (antibody, V domains shown)
VH: B1 VH
VL: B1 VL with A34G, V36T, L98H
Stability Index [1]: 72% | Kd [2]: 32.6 nM

B32: hu37D3.v29.10 (antibody, V domains shown)
VH: B1 VH
VL: B1 VL with D1E, N35E, V36T
Stability Index [1]: 100% | Kd [2]: 17.4 nM

B35: hu37D3.v28.52 (antibody, V domains shown)
VH: B1 VH
VL: B1 VL with D1E, N33K, A34G, V36T
Stability Index [1]: 80% | Kd [2]: 17.6 nM

Now those with a lower Kd [2], led by results:

Stability Index [1]: 81% | Kd [2]: 7.5 nM
B3: hu37D3-H9.v31.9 (antibody, V domains shown)
VH: B1 VH
VL: B1 VL with V36I

Stability Index [1]: 86% | Kd [2]: 7.3 nM
B4: hu37D3.v29.9 (antibody, V domains shown)
VH: B1 VH
VL: B1 VL with D1E, N35Q, V36T

Stability Index [1]: 64% | Kd [2]: 1.4 nM
B5: hu37D3.v29.5 (antibody, V domains shown)
VH: B1 VH
VL: B1 VL with D1E, A34G, N35H, V36T

Stability Index [1]: 76% | Kd [2]: 4.9 nM
B7: hu37D3.v29.4 (antibody, V domains shown)
VH: B1 VH
VL: B1 VL with D1E, A34G, N35A, V36T

Stability Index [1]: 93% | Kd [2]: 5.6 nM
B8: hu37D3.v29.3 (antibody, V domains shown)
VH: B1 VH
VL: B1 VL with D1E, A34G, N35E, V36T

Stability Index [1]: 62% | Kd [2]: 1.4 nM
B11: hu37D3.v29.6 (antibody, V domains shown)
VH: B1 VH
VL: B1 VL with D1E, A34G, N35K, V36T

Stability Index [1]: 79% | Kd [2]: 6.7 nM
B13: hu37D3.v29.13 (antibody, V domains shown)
VH: B1 VH
VL: B1 VL with D1E, N35K, V36T

Stability Index [1]: 90% | Kd [2]: 4.6 nM
B14: hu37D3.v29.7 (antibody, V domains shown)
VH: B1 VH
VL: B1 VL with D1E, A34G, N35L, V36T

Stability Index [1]: 73% | Kd [2]: 5.7 nM
B16: hu37D3.v28.D1 (antibody, V domains shown)
VH: B1 VH
VL: B1 VL with S32A, A34G, V36T

Stability Index [1]: 72% | Kd [2]: 4 nM
B20: hu37D3-H9.v5.1 (antibody, V domains shown)
VH: B1 VH
VL: B1 VL with D1E, V36T

Stability Index [1]: 51% | Kd [2]: 1.9 nM
B21: hu37D3.v28.F2 (antibody, V domains shown)
VH: B1 VH
VL: B1 VL with S32T, A34G, V36T

Stability Index [1]: 77% | Kd [2]: 1.4 nM
B22: hu37D3.v28.C1 (antibody, V domains shown)
VH: B1 VH
VL: B1 VL with A34N, V36T

Stability Index [1]: 88% | Kd [2]: 4.4 nM
B23: hu37D3.v28.57 (antibody, V domains shown)
VH: B1 VH
VL: B1 VL with A34F, V36T

Stability Index [1]: 50% | Kd [2]: 7 nM
B24: hu37D3.v29.12 (antibody, V domains shown)
VH: B1 VH
VL: B1 VL with D1E, N35H, V36T

Stability Index [1]: 82% | Kd [2]: 2.6 nM
B29: hu37D3.v28.55 (antibody, V domains shown)
VH: B1 VH
VL: B1 VL with A34Q, V36T

Stability Index [1]: 96% | Kd [2]: 1.2 nM
B33: hu37D3.v28.A4 (antibody, V domains shown)
VH: B1 VH
VL: B1 VL with A34G, V36T, F38L
notes: also called hu37D3-H9.v28.A4

Stability Index [1]: 76% | Kd [2]: 5.4 nM
B34: hu37D3.v28.56 (antibody, V domains shown)
VH: B1 VH
VL: B1 VL with A34Y, V36T
